Experimental data: US20220135700A1 (published 2022)
Like-named read-outs stand apart in the source and are kept apart here. One block for each binder: values may come before it.

What was measured:
[1] = target: T1, HER2 (form used in the assay not stated) (human, UniProt P04626 23-652, limits assumed); test: method not stated
T1 construct: also called ErbB2

[2] = target: T1, HER2 (form used in the assay not stated); test: method not stated; remark: listed apart in the source
[3] = target: T2, HER2 on the surface of HER2 overexpressing cancer cells (BT474) (human, UniProt P04626 23-1255); test: flow cytometry on BT474 cells, Alexa488-labelled agent
T2 construct: whole, on cells; also called ErbB2; HER2/Neu

[4] = target: T2, HER2 on the surface of HER2 …; test: flow cytometry, dissociation from BT474 cells in the presence of a competing DARPin (FIG. 18A)
Method: Corresponding to 100 μl cell suspension, samples were washed twice in 1 ml PBS (0.2% NaN₃, 1% BSA) and centrifuged at 600 g for 30 sec at room temperature. Cells were resuspended in 1 ml PBS (0.2% NaN₃, 1% BSA) containing 100 nM of equivalent unlabeled binding agent. The dissociation reaction was incubated for the indicated times (15, 30, 60, 120, 180 and 240 min) at room temperature while continuously stirring in the dark. Dissociation was stopped by placing the cell pellets on ice. Each sample was washed once with 1 ml cold PBS.

- Kd [1]: 3.8 nM
- koff [1]: 0.0008 s⁻¹
- kon [1]: 200000 M⁻¹ s⁻¹
- Kd [2]: 1 nM
- Kd [3]: 33.5 nM
- koff [3]: 0.00221 s⁻¹
- kon [3]: 69000 M⁻¹ s⁻¹
B1: DARPin 929 (designed binder)
chain: MRGSHHHHHHGSDLGKKLLEAARAGQDDEVRILMANGADVNAHDFYGITPLHLAANFGHLEIVEVLLKHGADVNAFDYDNTPLHLAADAGHLEIVEVLLKYGADVNASDRDGHTPLHLAAREGHLEIVEVLLKNGADVNAQDKFGKTAFDISIDNGNEDLAEILQKLN

- off-rate, times lower than monovalent G3 [4]: 10 fold
B2: 9_29-(G4S)4-G3 (designed binder)
chain: MRGSHHHHHHGSDLGKKLLEAARAGQDDEVRILMANGADVNAHDFYGITPLHLAANFGHLEIVEVLLKHGADVNAFDYDNTPLHLAADAGHLEIVEVLLKYGADVNASDRDGHTPLHLAAREGHLEIVEVLLKNGADVNAQDKFGKTAFDISIDNGNEDLAEILQKLGGGGSGGGGSGGGGSGGGGSRSDLGKKLLEAARAGQDDEVRILMANGADVNAKDEYGLTPLYLATAHGHLEIVEVLLKNGADVNAVDAIGFTPLHLAAFIGHLEIAEVLLKHGADVNAQDKFGKTAFDISIGNGNEDLAEILQKLN
notes: also called 9_20_G

- off-rate, times lower than monovalent G3 [4]: 10 fold
B3: 9_26-(G4S)4-G3 (designed binder)
chain: MRGSHHHHHHGSDLGKKLLEAARAGQDDEVRILMANGADVNAKDFYGITPLHLAAAYGHLEIVEVLLKHGADVNAHDWNGWTPLHLAAKYGHLEIVEVLLKHGADVNAIDNAGKTPLHLAAAHGHLEIVEVLLKYGADVNAQDKFGKTAFDISIDNGNEDLAEILQKLGGGGSGGGGSGGGGSGGGGSRSDLGKKLLEAARAGQDDEVRILMANGADVNAKDEYGLTPLYLATAHGHLEIVEVLLKNGADVNAVDAIGFTPLHLAAFIGHLEIAEVLLKHGADVNAQDKFGKTAFDISIGNGNEDLAEILQKLN
notes: also called 6_20_G
